Assay results as given in the supplement of paper PMC9732359.
± gives the uncertainty stated by the source.

Assay: protein stability index of a GFP-peptide fusion (yeast GPS) (PSI 1-4); higher = more stable; sorted into four equal gates, so the index is relative within each strain
In short: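 Tiled yeast protein peptides of 17 residues were each joined downstream of GFP, on plasmids that also express Cherry. The pooled library was maintained in yeast, and mid-log cultures in leucine-free medium were sorted into four equal gates on the GFP/Cherry ratio. Plasmids from every gate were amplified by PCR and sequenced on Illumina, with barcodes linking reads to strains. The protein stability index of a peptide is its gate-number-weighted read frequency summed over the gates.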

LPFMQNAGPNSNIPNLL [YDL088C/ASM4]
protein stability index (doa10∆): 2.46 ± 0.037
protein stability index (pdr5∆): 2.18 ± 0.04
protein stability index (san1∆): 2.58 ± 0.039
protein stability index (ubr1∆): 2.52 ± 0.029

KNGLYQEAFKIYQHLAS [SRP72]
protein stability index (doa10∆): 1.81 ± 0.061
protein stability index (pdr5∆): 2.14 ± 0.11
protein stability index (san1∆): 2.33 ± 0.23
protein stability index (ubr1∆): 2.77 ± 0.091

ADKPFTRLTAYQELAYR [YML031W/NDC1]
protein stability index (doa10∆): 2.52 ± 0.12
protein stability index (pdr5∆): 3.17 ± 0.11
protein stability index (san1∆): 3.06 ± 0.18
protein stability index (ubr1∆): 3 ± 0.098

NDNNLKKLESQESLVKL [RPN5]
protein stability index (doa10∆): 3.01 ± 0.071
protein stability index (pdr5∆): 2.96 ± 0.064
protein stability index (san1∆): 2.76 ± 0.06
protein stability index (ubr1∆): 2.97 ± 0.071

DSSTTSSNSQQSTPQPD [ITC1]
protein stability index (doa10∆): 3.04 ± 0.046
protein stability index (pdr5∆): 2.85 ± 0.048
protein stability index (san1∆): 2.69 ± 0.044
protein stability index (ubr1∆): 2.95 ± 0.038

KWDNQSASRAKNMPVIY [RGR1]
protein stability index (doa10∆): 2.86 ± 0.13
protein stability index (pdr5∆): 2.41 ± 0.12
protein stability index (ubr1∆): 3.39 ± 0.16

PHLPFSKSENPVLSTIA [SWI3]
protein stability index (doa10∆): 1.95 ± 0.049
protein stability index (pdr5∆): 2.04 ± 0.048
protein stability index (san1∆): 2.03 ± 0.062
protein stability index (ubr1∆): 2.05 ± 0.028

DYSKPNLPPHYALFLKA [SSN2]
protein stability index (doa10∆): 2.15 ± 0.07
protein stability index (pdr5∆): 2.03 ± 0.073
protein stability index (san1∆): 1.78 ± 0.11
protein stability index (ubr1∆): 1.99 ± 0.056

GSLACDTADEAKTLIPS [RPB4]
protein stability index (doa10∆): 3.06 ± 0.1
protein stability index (pdr5∆): 3.42 ± 0.086
protein stability index (san1∆): 3.33 ± 0.051
protein stability index (ubr1∆): 3.17 ± 0.071

EFLEDTSRTIVRNVKGP [RPS28A]
protein stability index (san1∆): 3.15 ± 0.29
protein stability index (ubr1∆): 3.03 ± 0.16

NLFGATANANKPAFSFG [YJL041W/NSP1]
protein stability index (doa10∆): 3.05 ± 0.096
protein stability index (pdr5∆): 3.18 ± 0.081
protein stability index (san1∆): 3.14 ± 0.074
protein stability index (ubr1∆): 3.12 ± 0.057

SPVRSDSADVPAFSNSN [YMR153W/NUP53]
protein stability index (doa10∆): 3.06 ± 0.096
protein stability index (pdr5∆): 3.07 ± 0.096
protein stability index (san1∆): 3.21 ± 0.12
protein stability index (ubr1∆): 2.93 ± 0.057

PSLNPIPHFIDNNSSLN [PRP8]
protein stability index (doa10∆): 2.3 ± 0.063
protein stability index (pdr5∆): 2.52 ± 0.05
protein stability index (san1∆): 2.78 ± 0.055
protein stability index (ubr1∆): 2.4 ± 0.045

QAIAKNNPQVVNAITVA [SNF5]
protein stability index (doa10∆): 1.85 ± 0.039
protein stability index (pdr5∆): 2.02 ± 0.043
protein stability index (san1∆): 1.63 ± 0.05
protein stability index (ubr1∆): 1.61 ± 0.036

GASTVMKTKTINAQGEE [PRP8]
protein stability index (doa10∆): 3.31 ± 0.11
protein stability index (pdr5∆): 3.06 ± 0.15
protein stability index (san1∆): 3.2 ± 0.083
protein stability index (ubr1∆): 3.07 ± 0.07

KTGTKPAAVFTETLKHD [RPL4A]
protein stability index (doa10∆): 2.24 ± 0.077
protein stability index (pdr5∆): 2.19 ± 0.17
protein stability index (san1∆): 1.74 ± 0.15
protein stability index (ubr1∆): 2.54 ± 0.11

ISLVDDIINAVNEIMYK [MTW1]
protein stability index (doa10∆): 2.9 ± 0.073
protein stability index (pdr5∆): 2.91 ± 0.081
protein stability index (san1∆): 2.83 ± 0.053
protein stability index (ubr1∆): 3.1 ± 0.095

DHFIHLRNLHMKRMVAQ [SNF12]
protein stability index (doa10∆): 2.78 ± 0.063
protein stability index (pdr5∆): 2.52 ± 0.083
protein stability index (san1∆): 2.77 ± 0.062
protein stability index (ubr1∆): 2.45 ± 0.047

WGIPLIKELRSKGYPIQ [FAS1]
protein stability index (doa10∆): 2.38 ± 0.16
protein stability index (pdr5∆): 2.75 ± 0.091
protein stability index (san1∆): 1.69 ± 0.2
protein stability index (ubr1∆): 1.85 ± 0.071

GVHTGQFIYAGKKASLN [RPL2A]
protein stability index (pdr5∆): 3.51 ± 0.19
protein stability index (san1∆): 3.15 ± 0.1
protein stability index (ubr1∆): 3.4 ± 0.12

KGYLQRGDDGESYAYLA [CDC53]
protein stability index (doa10∆): 3.17 ± 0.057
protein stability index (pdr5∆): 3.17 ± 0.055
protein stability index (san1∆): 3.21 ± 0.033
protein stability index (ubr1∆): 3.25 ± 0.044

TFSGALGKQSSSLLSRL [FAS2]
protein stability index (doa10∆): 3.33 ± 0.097
protein stability index (pdr5∆): 3.23 ± 0.087
protein stability index (san1∆): 3.22 ± 0.065
protein stability index (ubr1∆): 2.93 ± 0.073

ASYSKYLIDHIKVDGAV [RPL22B]
protein stability index (doa10∆): 2.92 ± 0.09
protein stability index (pdr5∆): 2.65 ± 0.11
protein stability index (san1∆): 2.62 ± 0.053
protein stability index (ubr1∆): 2.83 ± 0.063

KRDAKAAGSYYVEAQHK [RPL7A]
protein stability index (doa10∆): 3.21 ± 0.086
protein stability index (pdr5∆): 3.19 ± 0.046
protein stability index (san1∆): 3.22 ± 0.042
protein stability index (ubr1∆): 2.91 ± 0.054

DSVAAIGIPVNKASLAQ [QCR2]
protein stability index (doa10∆): 2.63 ± 0.056
protein stability index (pdr5∆): 2.61 ± 0.052
protein stability index (san1∆): 2.52 ± 0.081
protein stability index (ubr1∆): 2.82 ± 0.042

REIQIDAVLKIFSFHQD [SRB8]
protein stability index (doa10∆): 3.27 ± 0.08
protein stability index (pdr5∆): 3.12 ± 0.09
protein stability index (san1∆): 3.06 ± 0.052
protein stability index (ubr1∆): 3.04 ± 0.04

KTSSQTSLSSKDLSNYR [YMR153W/NUP53]
protein stability index (doa10∆): 2.67 ± 0.055
protein stability index (pdr5∆): 2.54 ± 0.06
protein stability index (san1∆): 2.58 ± 0.089
protein stability index (ubr1∆): 2.65 ± 0.039

KAIPTFSFGKPFFSSNT [YIL149C/MLP2]
protein stability index (doa10∆): 3.07 ± 0.048
protein stability index (pdr5∆): 3.14 ± 0.046
protein stability index (san1∆): 2.94 ± 0.035
protein stability index (ubr1∆): 3.011 ± 0.028

VNVEKFNVEYFAKEKLT [RPL6A]
protein stability index (doa10∆): 1.84 ± 0.039
protein stability index (pdr5∆): 1.96 ± 0.044
protein stability index (san1∆): 2.08 ± 0.069
protein stability index (ubr1∆): 2.37 ± 0.036

PSAEIREAYIENFAKGE [SWP82]
protein stability index (doa10∆): 2.39 ± 0.073
protein stability index (pdr5∆): 2.63 ± 0.084
protein stability index (san1∆): 2.58 ± 0.1
protein stability index (ubr1∆): 2.4 ± 0.064

QARMMQQQSADHDDSTD [NSL1]
protein stability index (doa10∆): 2.76 ± 0.051
protein stability index (pdr5∆): 2.74 ± 0.058
protein stability index (san1∆): 2.62 ± 0.052
protein stability index (ubr1∆): 2.76 ± 0.039

LSNEFTATNSKGEQIAI [ECM29]
protein stability index (doa10∆): 3.06 ± 0.11
protein stability index (pdr5∆): 3.25 ± 0.12
protein stability index (san1∆): 2.91 ± 0.18
protein stability index (ubr1∆): 3.26 ± 0.11

SGGSRNTSESLLVDIQK [SMC2]
protein stability index (doa10∆): 2.59 ± 0.14
protein stability index (pdr5∆): 2.22 ± 0.16
protein stability index (san1∆): 2.33 ± 0.12
protein stability index (ubr1∆): 1.73 ± 0.13

TDYFLPKNYSLHGLRSF [YJL039C/NUP192]
protein stability index (doa10∆): 1.96 ± 0.061
protein stability index (pdr5∆): 2.13 ± 0.065
protein stability index (san1∆): 2.12 ± 0.055
protein stability index (ubr1∆): 2.11 ± 0.064

NIKLLNNRMGSYDCTGV [POP1]
protein stability index (doa10∆): 2.85 ± 0.078
protein stability index (pdr5∆): 2.8 ± 0.059
protein stability index (san1∆): 2.83 ± 0.071
protein stability index (ubr1∆): 3 ± 0.042

SQPTNSTTTSLHVPNLQ [SMC4]
protein stability index (doa10∆): 1.99 ± 0.043
protein stability index (pdr5∆): 2.4 ± 0.035
protein stability index (san1∆): 2.21 ± 0.052
protein stability index (ubr1∆): 2.03 ± 0.027

KDALSNSILSVRDPWSI [SRB2]
protein stability index (doa10∆): 3.27 ± 0.07
protein stability index (pdr5∆): 3.41 ± 0.087
protein stability index (san1∆): 3.1 ± 0.06
protein stability index (ubr1∆): 3.36 ± 0.093

VQGLLQNAAANAEAKGL [RPL17A]
protein stability index (doa10∆): 2.3 ± 0.094
protein stability index (pdr5∆): 2.76 ± 0.1
protein stability index (san1∆): 2.06 ± 0.1
protein stability index (ubr1∆): 2.4 ± 0.12

SHTGLVRKYDLNICRQC [RPS29B]
protein stability index (doa10∆): 2.18 ± 0.052
protein stability index (pdr5∆): 2.51 ± 0.068
protein stability index (san1∆): 1.94 ± 0.092
protein stability index (ubr1∆): 2.09 ± 0.088

NVYRVTVHKTFEGNVAT [PRP8]
protein stability index (pdr5∆): 3.16 ± 0.23
protein stability index (san1∆): 3.23 ± 0.22
protein stability index (ubr1∆): 3.33 ± 0.15

TNTHPNFLSKIRNINVQ [SNF2]
protein stability index (doa10∆): 1.44 ± 0.049
protein stability index (pdr5∆): 1.68 ± 0.063
protein stability index (san1∆): 1.49 ± 0.09
protein stability index (ubr1∆): 1.34 ± 0.031

SLMSSQNKLFYITNADD [SIR3]
protein stability index (doa10∆): 2.77 ± 0.15
protein stability index (pdr5∆): 2.02 ± 0.12
protein stability index (san1∆): 3.07 ± 0.16
protein stability index (ubr1∆): 1.49 ± 0.095

NFKGLAKEKERMLEEAI [YIL149C/MLP2]
protein stability index (doa10∆): 3.4 ± 0.095
protein stability index (pdr5∆): 3.56 ± 0.09
protein stability index (san1∆): 3.48 ± 0.071
protein stability index (ubr1∆): 3.38 ± 0.083

PTTTTGGLFGNSAQNNS [YGR119C/NUP57]
protein stability index (doa10∆): 3.11 ± 0.071
protein stability index (pdr5∆): 3.18 ± 0.097
protein stability index (san1∆): 3 ± 0.062
protein stability index (ubr1∆): 3.24 ± 0.054

LFEQIGIRIKGKIVGFD [SME1]
protein stability index (doa10∆): 1.92 ± 0.12
protein stability index (pdr5∆): 1.85 ± 0.1
protein stability index (san1∆): 1.48 ± 0.2
protein stability index (ubr1∆): 1.89 ± 0.096

ALEFVSLLLSSVKESTG [SRB4]
protein stability index (doa10∆): 1.26 ± 0.046
protein stability index (pdr5∆): 1.61 ± 0.043
protein stability index (san1∆): 1.4 ± 0.11
protein stability index (ubr1∆): 1.24 ± 0.048

RATNCRKRKCGHTNQLR [RPL40A]
protein stability index (doa10∆): 3.25 ± 0.092
protein stability index (pdr5∆): 3.13 ± 0.058
protein stability index (san1∆): 3.12 ± 0.048
protein stability index (ubr1∆): 3.17 ± 0.051

TDSRTGQSTILVGSEIY [CDC53]
protein stability index (doa10∆): 2.77 ± 0.056
protein stability index (pdr5∆): 2.64 ± 0.066
protein stability index (san1∆): 2.94 ± 0.051
protein stability index (ubr1∆): 2.87 ± 0.065

DQKIWPYLEKYPEYDQI [SSN3]
protein stability index (doa10∆): 3.5 ± 0.12
protein stability index (pdr5∆): 3.08 ± 0.09
protein stability index (san1∆): 3.11 ± 0.065
protein stability index (ubr1∆): 3.43 ± 0.1

LHKRLHGVSFKKRAPRA [RPL31A]
protein stability index (doa10∆): 2.9 ± 0.12
protein stability index (pdr5∆): 2.73 ± 0.13
protein stability index (san1∆): 3 ± 0.16
protein stability index (ubr1∆): 3.17 ± 0.11

LMRQGVLGIKVKIMRDP [RPS3]
protein stability index (doa10∆): 2.4 ± 0.085
protein stability index (pdr5∆): 2.33 ± 0.074
protein stability index (san1∆): 2.25 ± 0.083
protein stability index (ubr1∆): 2.74 ± 0.051
